Data: US20230052369A1 (Zymeworks, published 2023)
Substitutions are numbered along the chain they refer to.

T1: Cyno 4-1BB-Flag, on HEK293-6e cells (Cynomolgus (Macaca fascicularis))
T1 construct: also called Cynomolgus 4-1BB; CL#11070
T1 chain: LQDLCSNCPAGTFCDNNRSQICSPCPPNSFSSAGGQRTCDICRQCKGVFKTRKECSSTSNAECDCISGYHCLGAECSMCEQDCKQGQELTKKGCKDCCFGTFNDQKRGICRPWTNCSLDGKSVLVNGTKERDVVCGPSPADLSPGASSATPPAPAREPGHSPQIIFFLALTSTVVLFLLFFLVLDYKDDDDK

B1: v20022 (antibody, human IgG1, kappa, L234A L235A, V domains shown)
VH: QVQLKESGPGLVAPSQSLSITCTVSGFSLTTYAISWVRQPPGKGLEWLGIIWPGGGTNYNSALKSRLSISKDNSRSQVFLKMNSLQTDDTARYYCARGAGTWYFDVWGAGTTVTVSS
VL: DIQMTQSTSSLSASVGDRVTISCSASQGISNYLNWYQQKPDGTVKLLIYYTSSLHSGVPSRFSGSGSGTDYSLTISNLEPEDIATYYCQQYSKFPWTFGGGTKLEIKR
notes: Mouse-human chimera; also called 1C8; 1C8 mouse-human parental chimera
B2: v20023 (antibody, human IgG1, kappa, L234A L235A, V domains shown)
VH: EVQLVESGGGLVKPGGSRKLSCAASGFTFSEFGMHWVRQAPDKGLKWVAYISSGGSTIYYADTVKGRFTISRDNAKNTLFLQMTSLRSEDTAMYYCARDWVDYWGQGTTLTVSS
VL: NIVMTQSPKSMSMSVGERVTLSCKASENVGSYVSWYQQKPEKSPKLLIYGASNRYTGVPDRFTGSGSATDFTLTISSVQAEDLADYHCGQSYSYPLTFGAGTKLELKR
notes: Mouse-human chimera; also called 1G1; 1G1 mouse-human parental chimera
B3: v20036 (antibody, human IgG1, kappa, L234A L235A, V domains shown)
VH: QVQLQESGPGLVQPTQSLSITCTVSGFSLISYGVHWVRQSPGKGLEWLGVIWSGGSTDYNAAFISRLSISKDNSKSQVFFKMNSLQADDTAIYYCARNPLTATVMDYWGQGTSVTVSS
VL: DIVMTQSQKFMSTSVGDRVSVTCKASQNVGTNVAWYQQKPGQSPKALIYSASYRDSGVPDRFTGSGSGTDFTLTISNVQSEDLAEYLCQQYNSYPLTFGAGTKLELKR
notes: Mouse-human chimera; also called 5G8; 5G8 mouse-human parental chimera
B4: v20037 (antibody, human IgG1, kappa, L234A L235A, V domains shown)
VH: B1 VH with T31S, I50V, R75K, A99T
VL: B1 VL with S7T, V15L, K93D, F94L
notes: Mouse-human chimera; also called 6B3
B5: v20032 (antibody, human IgG1, kappa, L234A L235A, V domains shown)
VH: B1 VH with T31S, S35N, I50V, I51L, R75K, A99S
VL: B1 VL with S7T, V15L, I21F, S56L, F94L
notes: Mouse-human chimera; also called 4E6
B6: v20025 (antibody, human IgG1, kappa, L234A L235A, V domains shown)
VH: B3 VH with Q5K, E6Q, T15S, I30T
VL: B3 VL with P44R, K45T, A46V, D55H, L87F, A100T
notes: Mouse-human chimera; also called 2E8
B7: v20029 (antibody, human IgG1, kappa, L234A L235A, V domains shown)
VH: B2 VH with E1Q, V5Q, K46E, G55S, T109A
VL: B2 VL
notes: Mouse-human chimera; also called 3E7
B8: v20027 (antibody, human IgG1, kappa, L234A L235A, V domains shown)
VH: QVQLQQPGAELVRPGASVKLSCKASGYTFTSYWINWVKQRPGQGLEWIGNIYPSDNYTNYNQKFKDKATLTVDKSSSTAYMQLSSPTSEDSAVYYCTRGGGIYYENYFDYWGQGTTLTVSS
VL: QIVLTQSPAIMSASPGEKVTMTCSASSSVSYMHWYQQKSGTSPKRWVYDTSKLASGVPARFSGSGSGTSYSLTISSMEAEDVATYYCQQWSSNPPTFGGGTKLEIKR
notes: Mouse-human chimera; also called 3D7
B9: v20020 (antibody, V domains shown)
VH: QVQLQQPGAELVKPGASVKLSCKASGYTFTSFWINWVKQRPGQGLEWIGNIYPDSSSTNYNEKFKNKATLTVDTSSSTAYMQLSSLTSDDSAVYFCARSLTFDYWGQGTTLTVSS
VL: DVVMTQTPLSLPVSLGDQASISCRSSQSIVHSNGNTYLEWYLQKPGQSPKLLIYKVSNRFSGVPDRFSARGSGTDFSLKISRVEAEDLGVYYCFQGSHVPYTFGGGTKLEIK
notes: Mouse-human chimera: mouse VH on human CH1-hinge-CH2-CH3 (IgG1), mouse VL on human kappa CL; also called 1B2
B10: v20031 (antibody, human IgG1, kappa, L234A L235A, V domains shown)
VH: QVQLQQSGPELVKPGASVKISCKASGYVFSSYWMNWVKQRPGKGLEWIGRIYPGNGDTNYNGKFKDKATLTADKFSSTAYMQLSNLTSEDSAVYFCASYYELDYWGQGTSVTVSS
VL: DVVMTQTPLSLPVSLGDQASISCRSSQSLVHSNGNTYLHWYLQKPGQSPKLLIYKVSNRFFGVPDRFSGSGSGTDFTLKISRVEAEDLGVYFCSQTTYVPLTFGAGTKLELKR
notes: Mouse-human chimera; also called 4B11; printed as 4B1
B11: v12592 (antibody, human IgG1, lambda)
heavy 1: EVQLVQSGAEVKKPGESLRISCKGSGYSFSTYWISWVRQMPGKGLEWMGKIYPGDSYTNYSPSFQGQVTISADKSISTAYLQWSSLKASDTAMYYCARGYGIFDYWGQGTLVTVSSASTKGPSVFPLAPCSRSTSESTAALGCLVKDYFPEPVTVSWNSGALTSGVHTFPAVLQSSGLYSLSSVVTVPSSNFGTQTYTCNVDHKPSNTKVDKTVEPKSCDKTHTCPPCPAPELLGGPSVFLFPPKPKDTLMISRTPEVTCVVVDVSHEDPEVKFNWYVDGVEVHNAKTKPREEQYNSTYRVVSVLTVLHQDWLNGKEYKCKVSNKALPAPIEKTISKAKGQPREPQVYVYPPSRDELTKNQVSLTCLVKGFYPSDIAVEWESNGQPENNYKTTPPVLDSDGSFALVSKLTVDKSRWQQGNVFSCSVMHEALHNHYTQKSLSLSPGK
heavy 2: not shown
light: SYELTQPPSVSVSPGQTASITCSGDNIGDQYAHWYQQKPGQSPVLVIYQDKNRPSGIPERFSGSNSGNTATLTISGTQAMDEADYYCATYTGFGSLAVFGGGTKLTVLGQPKAAPSVTLFPPSSEELQANKATLYCLISDFYPGAVTVAWKADSSPVKAGVETTTPSKQSNNKYAASSYLSITPEQWKSHRSYSCQVTHEGSTVEKTVAPTECS
notes: Control monospecific bivalent anti-4-1BB antibody, Het Fc; clones 2871, 4667, 2872; also called MOR7480.1-IG1; MOR7480.1

Molecular target: T2, human 4-1BB, full-length, expressed on cells (human, UniProt Q07011 24-255)
T2 construct: also called CD137; TNFRSF9
Assay: flow cytometry, Jurkat-4-1BB

T2 sequence (Q07011 24-255): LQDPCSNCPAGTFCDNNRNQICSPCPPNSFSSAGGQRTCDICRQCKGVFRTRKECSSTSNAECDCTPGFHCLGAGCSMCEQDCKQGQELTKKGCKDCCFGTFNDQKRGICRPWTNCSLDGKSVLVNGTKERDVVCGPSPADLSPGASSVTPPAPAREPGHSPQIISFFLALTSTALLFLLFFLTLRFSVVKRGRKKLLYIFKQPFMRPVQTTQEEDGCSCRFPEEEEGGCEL

Binder | EC50
B1 | 0.0173 µM
B2 | 0.000337 µM
B3 | 0.0169 µM

Molecular target: T3, 4-1BB dog-human (human-dog chimeric 4-1BB ECD-TEV-IgG1 Fc-10x His) (human with dog residues in domain 4)
T3 construct: Human 4-1BB ECD with K115Q, C121R, R134Q, R154S and V156A (already in the entry); also called dog-human chimeric 4-1BB; hybrid 4-1BB
Assay: ELISA, coated 4-1BB-Fc

T3 sequence (chain, as listed by the source mutant limits assumed): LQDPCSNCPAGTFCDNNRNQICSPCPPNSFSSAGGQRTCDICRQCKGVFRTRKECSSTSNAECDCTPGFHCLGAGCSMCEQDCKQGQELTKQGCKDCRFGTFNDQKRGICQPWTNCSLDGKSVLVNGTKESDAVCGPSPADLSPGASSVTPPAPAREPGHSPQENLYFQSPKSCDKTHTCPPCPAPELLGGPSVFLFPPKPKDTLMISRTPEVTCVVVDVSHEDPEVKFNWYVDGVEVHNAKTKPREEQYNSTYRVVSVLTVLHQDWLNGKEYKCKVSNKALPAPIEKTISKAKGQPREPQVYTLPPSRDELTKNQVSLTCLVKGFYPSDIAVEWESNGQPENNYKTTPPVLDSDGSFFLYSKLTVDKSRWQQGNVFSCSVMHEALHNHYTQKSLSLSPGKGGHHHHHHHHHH

Binder | binding result
B4 | binds
B1 | binds
B5 | binds
B6 | binds
B3 | binds

Molecular target: T4, 4-1BB dog (dog 4-1BB ECD-TEV-IgG1 Fc-10x His) (dog)
T4 construct: Uniprot E2R1R9 residues 24-186 fused to TEV site, IgG1 Fc and His tag
Assay: ELISA, coated 4-1BB-Fc

T4 sequence (chain, as listed by the source limits assumed): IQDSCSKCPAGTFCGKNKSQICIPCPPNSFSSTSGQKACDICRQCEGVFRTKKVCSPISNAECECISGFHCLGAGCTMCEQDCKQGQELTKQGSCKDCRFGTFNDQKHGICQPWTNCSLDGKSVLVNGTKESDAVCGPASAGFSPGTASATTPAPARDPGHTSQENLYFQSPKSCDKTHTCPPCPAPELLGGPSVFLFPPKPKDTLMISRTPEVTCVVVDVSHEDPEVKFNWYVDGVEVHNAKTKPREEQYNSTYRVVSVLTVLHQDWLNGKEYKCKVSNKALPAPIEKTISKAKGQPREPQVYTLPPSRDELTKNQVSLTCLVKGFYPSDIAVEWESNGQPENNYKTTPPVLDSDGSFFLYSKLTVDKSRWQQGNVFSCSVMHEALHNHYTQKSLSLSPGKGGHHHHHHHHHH

Binder | binding result
B4 | no binding
B1 | no binding
B5 | no binding
B2 | binds
B7 | binds
B6 | no binding
B3 | no binding

Molecular target: T5, 4-1BB human (human 4-1BB ECD-TEV-IgG1 hinge-CH2-CH3-10x His) (human)
T5 construct: 4-1BB residues 24-186 fused to TEV site, IgG1 Fc and His tag; the entry is the whole fusion; also called soluble human 4-1BB-Fc
Assay: ELISA, coated 4-1BB-Fc

T5 sequence (chain, as listed by the source limits assumed): as the sequence (chain, as listed by the source mutant limits assumed) above, with Q92K, R98C, Q111R, S131R, A133V counted along it

Binder | binding result
B4 | binds
B1 | binds
B5 | binds
B2 | binds
B7 | binds
B6 | binds
B3 | binds
B8 | no binding

Molecular target: T6, Mouse 4-1BB-Flag, on HEK293-6e cells (Mouse (Mus musculus), UniProt P20334 24-208)
T6 construct: also called CL#11063
Assay: CellInsight cell binding, transfected HEK293-6e

T6 sequence (P20334 other isoform, or with tags, fused parts or gaps limits assumed): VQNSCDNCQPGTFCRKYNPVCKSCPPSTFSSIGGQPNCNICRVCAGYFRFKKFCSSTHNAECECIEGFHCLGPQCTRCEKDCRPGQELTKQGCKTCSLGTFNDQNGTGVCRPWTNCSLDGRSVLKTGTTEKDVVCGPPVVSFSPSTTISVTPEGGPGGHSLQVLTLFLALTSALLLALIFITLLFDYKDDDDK

Binder | binding result
B4 | no binding
B1 | no binding
B5 | no binding
B2 | no binding
B7 | no binding
B9 | no binding
B6 | no binding
B3 | no binding
B10 | no binding

Molecular target: T1, Cyno 4-1BB-Flag, on HEK293-6e cells
Assay: CellInsight cell binding, transfected HEK293-6e

Binder | binding result
B11 | binds
B1 | binds
B2 | binds
B7 | binds
B9 | no binding
B6 | binds
B10 | no binding

Molecular target: T7, purified human monomeric 4-1BB (human, UniProt Q07011 24-186)
T7 construct: the assay used the 4-1BB part released by Factor Xa with the Fc removed; also called h4-1BB; human 4-1BB
Assay: SPR, mean n=3;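 further: antibodies captured on anti-human Fc chip, 4-1BB injected as five-point two-fold series from 40 nM by single-cycle kinetics at 25 °C, sensorgrams fitted to 1:1 Langmuir model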

T7 sequence (Q07011 other isoform, or with tags, fused parts or gaps limits assumed): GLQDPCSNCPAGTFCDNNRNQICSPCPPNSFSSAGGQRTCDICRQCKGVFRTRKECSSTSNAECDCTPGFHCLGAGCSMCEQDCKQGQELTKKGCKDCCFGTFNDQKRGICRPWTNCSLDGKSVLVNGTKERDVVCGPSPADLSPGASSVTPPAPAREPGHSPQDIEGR

Binder | Kd
B1 | 0.582 µM
B2 | 0.0496 µM
B3 | 0.266 µM

Molecular target: T2, human 4-1BB, full-length, expressed on …
Assay: flow cytometry, transfected 293E6 cells

Binder | binding result
B4 | binds
B5 | binds
B7 | binds
B6 | binds

Molecular target: T8, truncated human 4-1BB domain 3 and 4 only construct (residues 86-255), on cells (human, UniProt Q07011 86-255)
T8 construct: on 293E6 cells co-transfected with mouse 4-1BB; also called 4-1BB domain 3 and 4 only construct (amino acids 86-255)
Assay: flow cytometry, transfected 293E6 cells

T8 sequence (Q07011 86-255): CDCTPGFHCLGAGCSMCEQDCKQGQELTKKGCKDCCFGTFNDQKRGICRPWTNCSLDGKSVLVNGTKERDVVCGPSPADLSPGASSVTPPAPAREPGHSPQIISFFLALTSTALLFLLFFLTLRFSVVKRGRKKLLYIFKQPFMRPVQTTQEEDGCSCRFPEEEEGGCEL

Binder | binding result
B4 | no binding (tested: 2.5 µg of antibody)
B1 | no binding (tested: 2.5 µg of antibody)
B5 | no binding (tested: 2.5 µg of antibody)
B2 | no binding (tested: 2.5 µg of antibody)
B7 | no binding (tested: 2.5 µg of antibody)
B6 | no binding (tested: 2.5 µg of antibody)
B3 | no binding (tested: 2.5 µg of antibody)
